Earlier results as cited in PMC4390431.
Like-named read-outs stand apart in the source and are kept apart here.

How the values were obtained:
[1] = target: IscU (Escherichia coli) (UniProt P0ACD4); experiment: SPR
[2] = target: IscU (Escherichia coli) (UniProt P0ACD4); experiment: SPR; remark: listed apart in the source

Chain of UniProt P0ACD4 (P0ACD4 whole entry): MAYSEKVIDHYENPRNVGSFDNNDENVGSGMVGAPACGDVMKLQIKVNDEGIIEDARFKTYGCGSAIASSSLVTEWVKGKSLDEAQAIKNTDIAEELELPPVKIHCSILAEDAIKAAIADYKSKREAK

Substance: HscA (from UniProt P0A6Z1)
- Kd [1]: 0.1 µM
- Kd [2]: 37 µM
